Results taken from patent publication US20190270826A1 (Janssen / Centocor, published 2019).
Numbering of substitutions follows the chain as printed.

T1: recombinant cyno IL1RAP ECD (cynomolgus monkey, UniProt P59822 21-367 (rhesus entry))
T1 construct: also called rcynoIL1RAP
T1 sequence: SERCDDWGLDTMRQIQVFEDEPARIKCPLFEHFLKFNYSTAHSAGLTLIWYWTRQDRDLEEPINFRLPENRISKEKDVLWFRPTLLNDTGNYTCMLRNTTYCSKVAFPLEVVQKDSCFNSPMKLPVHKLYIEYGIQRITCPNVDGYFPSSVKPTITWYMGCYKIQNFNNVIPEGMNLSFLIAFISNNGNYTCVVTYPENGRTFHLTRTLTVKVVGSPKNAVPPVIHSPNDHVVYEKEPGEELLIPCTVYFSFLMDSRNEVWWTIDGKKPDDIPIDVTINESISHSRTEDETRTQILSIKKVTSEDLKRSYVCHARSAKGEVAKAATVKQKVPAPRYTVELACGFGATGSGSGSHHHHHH

T2: recombinant human IL1RAP ECD (human, UniProt Q9NPH3 21-367)
T2 construct: His-tagged; also called hIL1RAP-ECD; rhuIL1RAP
T2 sequence: T1 sequence with F183L, P273T, T326K

T3: human IL1RAP on cells (endogenous) (human, UniProt Q9NPH3 21-570)
T3 sequence (looked up): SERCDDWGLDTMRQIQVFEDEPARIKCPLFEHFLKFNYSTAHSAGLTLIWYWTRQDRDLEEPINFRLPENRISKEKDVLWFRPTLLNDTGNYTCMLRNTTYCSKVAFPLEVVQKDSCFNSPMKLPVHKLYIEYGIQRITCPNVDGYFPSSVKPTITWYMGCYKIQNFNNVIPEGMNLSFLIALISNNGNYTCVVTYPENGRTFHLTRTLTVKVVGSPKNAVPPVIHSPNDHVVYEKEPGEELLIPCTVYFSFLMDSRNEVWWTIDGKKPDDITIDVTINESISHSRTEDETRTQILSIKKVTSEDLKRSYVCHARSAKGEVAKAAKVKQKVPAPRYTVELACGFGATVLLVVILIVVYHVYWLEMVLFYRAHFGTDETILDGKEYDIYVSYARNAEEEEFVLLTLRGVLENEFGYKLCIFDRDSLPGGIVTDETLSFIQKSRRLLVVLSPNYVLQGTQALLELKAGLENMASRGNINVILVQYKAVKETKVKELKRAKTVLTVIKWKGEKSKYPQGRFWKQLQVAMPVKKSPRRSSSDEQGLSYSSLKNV

T4: cyno IL1RAP ECD displayed on HEK-293F cells (pDisplay) (cynomolgus monkey, UniProt P59822 21-367 (rhesus entry))
T4 sequence: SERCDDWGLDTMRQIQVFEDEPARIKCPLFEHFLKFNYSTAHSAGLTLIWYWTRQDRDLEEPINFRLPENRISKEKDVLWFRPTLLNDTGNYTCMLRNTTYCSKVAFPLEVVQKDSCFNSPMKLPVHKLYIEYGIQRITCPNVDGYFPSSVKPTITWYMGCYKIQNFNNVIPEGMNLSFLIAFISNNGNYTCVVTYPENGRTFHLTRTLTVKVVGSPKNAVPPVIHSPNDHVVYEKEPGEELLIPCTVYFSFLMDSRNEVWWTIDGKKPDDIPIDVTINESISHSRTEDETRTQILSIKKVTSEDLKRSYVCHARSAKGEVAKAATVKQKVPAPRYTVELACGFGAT

B1: IC3B3 (bispecific antibody, human IgG4 S228P, kappa, lambda, F234A L235A)
heavy 1: EVQLVESGGGLVQPGGSLKLSCAASGFTFNTYAMNWVRQASGKGLEWVGRIRSKYNAYATYYAASVKGRFTISRDDSKNTAYLQMNSLKTEDTAVYYCTRHGNFGNSYVSWFAYWGQGTLVTVSSASTKGPSVFPLAPCSRSTSESTAALGCLVKDYFPEPVTVSWNSGALTSGVHTFPAVLQSSGLYSLSSVVTVPSSSLGTKTYTCNVDHKPSNTKVDKRVESKYGPPCPPCPAPEAAGGPSVFLFPPKPKDTLMISRTPEVTCVVVDVSQEDPEVQFNWYVDGVEVHNAKTKPREEQFNSTYRVVSVLTVLHQDWLNGKEYKCKVSNKGLPSSIEKTISKAKGQPREPQVYTLPPSQEEMTKNQVSLTCLVKGFYPSDIAVEWESNGQPENNYKTTPPVLDSDGSFLLYSKLTVDKSRWQEGNVFSCSVMHEALHNHYTQKSLSLSLGK
light 1: QAVVTQEPSLTVSPGGTVTLTCRSSTGAVTTSNYANWVQQKPGQAPRGLIGGTNKRAPGTPARFSGSLLGGKAALTLSGAQPEDEAEYYCALWYSNLWVFGGGTKLTVLGQPKAAPSVTLFPPSSEELQANKATLVCLISDFYPGAVTVAWKADSSPVKAGVETTTPSKQSNNKYAASSYLSLTPEQWKSHRSYSCQVTHEGSTVEKTVAPTECS
heavy 2: not shown
light 2: DIQLTQSPSFLSASVGDRVTITCRASQGISSYLAWYQQKPGKAPKLLIYAASTLQSGVPSRFSGSGSGTEFTLTISSLQPEDFATYYCQQVNSYPLTFGGGTKVEIKRTVAAPSVFIFPPSDEQLKSGTASVVCLLNNFYPREAKVQWKVDNALQSGNSQESVTEQDSKDSTYSLSSTLTLSKADYEKHKVYACEVTHQGLSSPVTKSFNRGEC
notes: IgG4-PAA, Fab arm exchange; also called IAPB57 x CD3B220
B2: IC3B15 (bispecific antibody, human IgG4 S228P, kappa, lambda, F234A L235A)
heavy 1: B1 heavy 1
light 1: B1 light 1
heavy 2: not shown
light 2: not shown
notes: IgG4-PAA, Fab arm exchange; also called IAPB65 x CD3B220
B3: IC3B6 (bispecific antibody, human IgG4 S228P, kappa, lambda, F234A L235A)
heavy 1: B1 heavy 1
light 1: B1 light 1
heavy 2: not shown
light 2: not shown
notes: IgG4-PAA, Fab arm exchange; also called IAPB3 x CD3B220
B4: IAPB23 (antibody, human IgG4 S228P, kappa, F234A L235A, V domains shown)
VH: EVQLLESGGGLVQPGGSLRLSCAASGFTFSNYWMNWVRQAPGKGLEWVSAIRYDGGSKYYADSVKGRFTISRDNSKNTLYLQMNSLRAEDTAVYYCAKDAYPPYSFDYWGQGTLVTVSS
VL: EIVLTQSPATLSLSPGERATLSCRASQSVSSYLAWYQQKPGQAPRLLIYDASNRATGIPARFSGSGSGTDFTLTISSLEPEDFAVYYCQQRSNWPLTFGQGTKVEIKR
notes: IgG4-PAA; whole chains
B5: IAPB55 (antibody, human IgG4 S228P, kappa, F234A L235A, V domains shown)
VH: QLQLQESGPGLVKPSETLSLTCTVSGVSISSSTYYWGWLRQPPGMGLEWTGSIYFTGNTYYNPSLKSRVTISVDTSRNQFSLKLSSVTAADTAVYYCGSLFGDYGYFDYWGQGTLVTVSS
VL: EIVMTQSPATLSVSPGERATLSCRASQFISSNLAWYQQKPGQAPRLLIYGASTRATGIPARFSGSGSGTDFTLTISSLQSEDFAVYYCQQYNNWPFTFGPGTKVDIKR
notes: IgG4-PAA; whole chains
B6: IAPB61 (antibody, human IgG4 S228P, kappa, F234A L235A, V domains shown)
VH: B5 VH
VL: B5 VL with S14P, F96S
notes: IgG4-PAA; whole chains
B7: IAPB03 (antibody, human IgG4 S228P, kappa, F234A L235A, V domains shown)
VH: QVQLVQSGAEVKKPGSSVKVSCKASGGTFSSYAISWVRQAPGQGLEWMGGISAIFGTANYAQKFQGRVTITADESTSTAYMELSSLRSEDTAVYYCARGNSFHALWDYAFDYWGQGTLVTVSS
VL: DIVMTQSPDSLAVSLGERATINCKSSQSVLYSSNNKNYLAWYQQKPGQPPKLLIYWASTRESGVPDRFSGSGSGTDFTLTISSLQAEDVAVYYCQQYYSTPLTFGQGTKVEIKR
notes: IgG4-PAA; the entries called VH/VL are whole chains; also called IAPB3

What follows are binders tested against T1, recombinant cyno IL1RAP ECD (assay: SPR).

Kd | koff | kon | Binder
0.0861 nM | 8.2e-05 s⁻¹ | 952000 M⁻¹ s⁻¹ | B1
9.08 nM | 0.00344 s⁻¹ | 379000 M⁻¹ s⁻¹ | B2
2.99 nM | 0.00054 s⁻¹ | 180000 M⁻¹ s⁻¹ | B3

The binders below were run against T2, recombinant human IL1RAP ECD (assay: SPR; human KD over cyno KD).

Hu/Cyno KD Ratio | Binder
0.4 | B1
1.3 | B2
0.8 | B3

Each binder was assayed against T3, human IL1RAP on cells (endogenous) (assay: cell-based or functional assay).

Binder | EC50, T-cell mediated cytotoxicity
B1 | 0.131 nM
B2 | 0.94 nM
B3 | 0.49 nM

What follows are binders tested against T2, recombinant human IL1RAP ECD (assay: SPR).

Kd | koff | kon | Binder
0.034 nM | 2.98e-05 s⁻¹ | 875000 M⁻¹ s⁻¹ | B1
11.5 nM | 0.00395 s⁻¹ | 343000 M⁻¹ s⁻¹ | B2
2.29 nM | 0.000381 s⁻¹ | 167000 M⁻¹ s⁻¹ | B3

Each binder was assayed against T2, recombinant human IL1RAP ECD (assay: SPR, summary).

Kd | Binder
4.7 nM | B4
1.64 nM | B5
17.5 nM | B6
2.64 nM | B7

Biological target: T2, recombinant human IL1RAP ECD
Experiment: SPR, summary
Remark: another data set of the same source

Kd | Binder
0.034 nM | B1
11.5 nM | B2
2.29 nM | B3

Each binder was assayed against T1, recombinant cyno IL1RAP ECD (assay: SPR, summary).

Kd | Binder
0.086 nM | B1
9.08 nM | B2
2.99 nM | B3

What follows are binders tested against T1, recombinant cyno IL1RAP ECD (assay: recombinant protein).

binding result | Binder
binds | B4
binds | B5
binds | B6
binds | B7

The binders below were run against T2, recombinant human IL1RAP ECD (assay: SPR (ProteOn)).
Description: The rates of IL1RAP ECD association and dissociation were measured for each variant. The biosensor surface was prepared by covalently coupling Goat anti-Human IgG (Fc) to the surface of a GLC chip (BioRad) using the manufacturer instructions for amine-coupling chemistry. […] The RU immobilized also included a goat anti-mouse Fc antibody that was added to capture other antibodies not included in the ones reported here. Since the mixture was 1:1 about 50% of these RU immobilized are expected to be goat anti-human Fc. The kinetic experiments were performed at 25° C. in running buffer (PBS pH 7.4, 0.005% P20, 3 mM EDTA). […] (1:3) serial dilutions of human IL1RAP ECD, starting at 400 nM were prepared in running buffer. […] The reference spots (Goat anti-Human IgG (Fc)-modified surface) containing no candidate captured were used as a reference surface. Capture of mAb was followed by a 3 minute injection (association phase) of antigen at 40 μL/min, followed by 10 minutes of buffer flow (dissociation phase). […] Data was processed on the instrument software. Double reference subtraction of the data was performed by subtracting the curves generated by buffer injection from the reference-subtracted curves for analyte injections. Kinetic analysis of the data was performed using 1:1 Langmuir binding model with group fit.

Kd | koff | kon | Binder
4.7 nM | 0.00149 s⁻¹ | 317000 M⁻¹ s⁻¹ | B4
2.64 nM | 0.000357 s⁻¹ | 135000 M⁻¹ s⁻¹ | B7

Biological target: T2, recombinant human IL1RAP ECD
Experiment: SPR
Remark: another data set of the same source

Kd | Binder
0.034 nM | B1
11.5 nM | B2
2.29 nM | B3

Biological target: T1, recombinant cyno IL1RAP ECD
Experiment: SPR
Remark: another data set of the same source

Kd | Binder
0.0861 nM | B1
9.08 nM | B2
2.99 nM | B3

The binders below were run against T4, cyno IL1RAP ECD displayed on HEK-293F … (assay: HEK-293F cells (MSD)).

binding result | Binder
binds | B4
binds | B5
binds | B6
binds | B7
